The values below come from publication PMC11865472 (2025).

T1: biotinylated TGF-β2 homodimer (human, biotin (EZ-Link Amine-PEG3-Biotin coupled with EDC and sulfo-NHS))
T1 chain: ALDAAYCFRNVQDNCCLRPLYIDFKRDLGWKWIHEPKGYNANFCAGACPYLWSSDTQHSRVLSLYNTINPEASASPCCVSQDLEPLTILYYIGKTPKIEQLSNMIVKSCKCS

T2: inhibin A (InhA), mature heterodimer, unlabelled (UniProt P05111 233-366; P08476 311-426)
T2 chain 1: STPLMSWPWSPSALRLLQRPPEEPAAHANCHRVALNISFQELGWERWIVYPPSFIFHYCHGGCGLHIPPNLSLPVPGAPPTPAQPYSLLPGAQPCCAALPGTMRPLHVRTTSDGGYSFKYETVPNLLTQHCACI
T2 chain 2: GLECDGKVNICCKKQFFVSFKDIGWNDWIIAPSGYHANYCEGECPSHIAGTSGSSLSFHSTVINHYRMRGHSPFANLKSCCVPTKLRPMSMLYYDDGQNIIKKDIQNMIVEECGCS

B1: rat betaglycan ZP-C domain (BG_(ZP-C)), mammalian-expressed (domain or fragment)
chain: GNATFNMELYNTDLFLVPSPGVFSVAENEHVYVEVSVTKADQDLGFAIQTCFLSPYSNPDRMSDYTIIENICPKDDSVKFYSSKRVHFPIPHAEVDKKRFSFLFKSVFNTSLLFLHCELTLCSRKKGSLKLPRCVTPDDACTSLDATMIWTMMQNKKTFTKPLAVVLQ
B2: BGZP-C S155A (protein)
chain: B1 chain with S143A
B3: BGZP-C E130A (protein)
chain: B1 chain with E118A
B4: TGF-β2 on the chip with ratBGO-Y248A bound (1 µM ratBGO-Y248A in the buffer) (complex)
chain 1: T1 chain
chain 2: GSPCELSPINASHPVQALMESFTVLSGCASRGTTGLPREVHVLNLRSTDQGPGQRQREVTLHLNPIASVHTHHKPIVFLLNSPQPLVWHLKTERLAAGVPRLFLVSEGSVVQFPSGNFSLTAETEERNFPQENEHLLRWAQKEYGAVTSFTELKIARNIYIKVGEDQVFPPTCNIGKNFLSLNYLAEYLQPKAAEGCVLPSQPHEKEVHIIELITPSSNPASAFQVDIIVDIRPAQEDPEVVKNLVLILKCKKSVNWVIKSFDVKGNLKVIAPNSIGFGKESERSMTMTKLVRDDIPSTQENLMKWALDNGYRPVTSYTMAPVANRFHLRLENHHHHHH
B5: TGF-β2 on the chip with ratBGO-zfBL bound (1 µM ratBGO-zfBL in the buffer) (complex)
chain 1: T1 chain
chain 2: GSPCELSPINASHPVQALMESFTVLSGCASRGTTGLPREVHVLNLRSTDQGPGQRQREVTLHLNPIASVHTHHKPIVFLLNSPQPLVWHLKTERLAAGVPRLFLVSEGSVVQFPSGNFSLTAETEERNFPQENEHLLRWAQKEYGAVTSFTELKIARNIYIKVGEDQVFPPTCNIGKNFLSLNYLAEYLQPKAAEGCVLPSQPHEKEVHIIELITPNSSSAFQVDIIVDIRPAQEDPEVVKNLVLILKCKKSVNWVIKSFDVKGNLKVIAPNSIGFGKESERSMTMTKLVRDDIPSTQENLMKWALDNGYRPVTSYTMAPVANRFHLRLENHHHHHH
B6: TGF-β2 homodimer (growth factor domain), unlabelled (ligand)
chain: T1 chain
B7: TGF-β2 on the chip with ratBGO bound (1 µM ratBGO in the buffer) (complex)
chain 1: T1 chain
chain 2: B4 chain 2 with A221Y
B8: TGF-β2 on the chip with zfBGO bound (1 µM zfBGO in the buffer) (complex)
chain 1: T1 chain
chain 2: GSPCELLPVGVGHPVQAMLKSFTALSGCASRGTTSHPQEVHIINLRKGSAQGAREKTAEVALHLRPIQSLHVHQKPLVFILNSPQPILWKVRTEKLAPGVKRIFHVVEGSEVHFEVGNFSKSGEVKVETLPHGNEHLLNWAHHRYTAVTSFSELRMAHDIYIKVGEDPVFSETCKIDNKFLSLNYLASYIEPQPSTGCVLSGPDHEQEVHIIELQAPNSSSAFQVDVIVDLRPLDGDIPLHRDVVLLLKGEKSVNWVIKAHKVMGKLEIMTSDTVSLSEDTERLMQVSKTVKQKLPAGSQALIQWAEENGFNPVTSYTNTPVANHFNLRLREHHHHHH

Changes are numbered by the printed parent chain. Names and notes keep the numbering of the source.

The target in assay [1] is T1, biotinylated TGF-β2 homodimer. The experiment in a line: SPR. A general note: Surface plasmon resonance follows binding to a sensor surface in real time, without labels.
In assay [2] the target is T2, inhibin A (InhA), mature heterodimer, …. The experiment in a line: SPR.
In assay [3] the target is B6. Put plainly: SPR.
Assay [4] has as its target T3, TGF-β receptor type II (TGFBR2), extracellular domain (UniProt P37173 23-166). Put plainly: SPR; 1 µM ratBGO-Y248A.
Assay [5] addresses T3, TGF-β receptor type II (TGFBR2), …. The experiment in a line: SPR; 1 µM ratBGO-zfBL.
The target is the same in assay [6]. The experiment in a line: SPR.
Assay [7] shares this target. Put plainly: SPR; 1 µM ratBGO.
For assay [8] the target is unchanged. Put plainly: SPR; 1 µM zfBGO.

On to B1, for which the Kd in assay [1] was 159 nM; in assay [2], 1070 nM; in assay [3] it was 127 nM.
Regarding B2, the Kd in assay [1] amounted to 282 nM.
Same read-out and setting: under B3 stands 1350 nM.
The molecule B4 displayed a Kd in assay [4] of more than 10000 nM.
For B5, in assay [5], the Kd is more than 10000 nM.
B6 had a Kd in assay [6] of more than 10000 nM.
In the case of B7, the Kd in assay [7] was 1780 nM. This lies in the single-digit micromolar range.
Turning to B8, the Kd in assay [8] is more than 10000 nM.

One may read the Kd as a measure of binding affinity in units of concentration. Read a high Kd as lower affinity.
